This note sets out measurements from the supplement of paper PMC10567573.

B1: CDC25A (parent)
chain: KKFRTKSRTWAGEKSKREMYSRLK
B2: BTBD10 (parent)
chain: DRKLHSRPRKLYKHSSTSSRIAKG
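Further: lentivirally expressed fusions sorted by FACS into six bins by GFP to DsRed ratio, PSI derived from sequencing read proportions per bin multiplied by bin number.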

Variants of B1 are the subject of one data set. In words: protein stability index of a GFP-peptide fusion (GPS, HEK-293T) (PSI 1-6); higher = more stable. Conditions: c terminus: a fixed tail appended.
Regarding KKFRTKSRTWAGEKSKREMYSRLA [K24A], the protein stability index was 2.37. On the same count and under the same terms, as for KKFRTKSRTWAGEKSKREMYSRLM [K24M], the figure is 2.37; as for KKFRTKSRTWAGEKSKREMYSRLR [K24R], 2.91. Same read-out and setting: as for KKFRTKSRTWAGEKSKREMYSRLL [K24L], the figure is 2.31; as for KKFRTKSRTWAGEKSKREMYSRLI [K24I], 2.32. On the same count and under the same terms, in the case of KKFRTKSRTWAGEKSKREMYSRLY [K24Y] it was 1.37.

Consider KKFRTKSRTWAGEKSKREMYSRLP [K24P], for which the protein stability index was 3.49. On the same count and under the same terms, as for KKFRTKSRTWAGEKSKREMYSRLS [K24S], the figure is 3.16. Regarding KKFRTKSRTWAGEKSKREMYSRLQ [K24Q], the protein stability index amounted to 2.58. In the case of KKFRTKSRTWAGEKSKREMYSRLF [K24F], the protein stability index was 2.06. Same read-out and setting: in the case of KKFRTKSRTWAGEKSKREMYSRLG [K24G] it was 2.52; in that of KKFRTKSRTWAGEKSKREMYSRLH [K24H], 2.62.

Take KKFRTKSRTWAGEKSKREMYSRLN [K24N]: the protein stability index was determined as 3.32.

In the case of KKFRTKSRTWAGEKSKREMYSRLC [K24C], the protein stability index came out at 2.08.

Take KKFRTKSRTWAGEKSKREMYSRLD [K24D]: the protein stability index came to 3.13. The same measure, in the same setting: in the case of KKFRTKSRTWAGEKSKREMYSRLE [K24E] it was 3.27. On the same count and under the same terms, as for KKFRTKSRTWAGEKSKREMYSRLT [K24T], the figure is 2.94.

The variants in another data set derive from B2. The data set is described as above. Conditions: c terminus: a fixed tail appended.
On to DRKLHSRPRKLYKHSSTSSRIFKG [A22F], for which the protein stability index was 2.99. On the same count and under the same terms, in the case of DRKLHSRPRKLYKHSSTSSRIMKG [A22M] it was 3.44; in that of DRKLHSRSRKLYKHSSTSSRIAKG [P8S], 3.5. On the same count and under the same terms, in the case of DRKLHSRHRKLYKHSSTSSRIAKG [P8H] it was 4.12; in that of DRKLHSRYRKLYKHSSTSSRIAKG [P8Y], 2.82. The same measure, in the same setting: in the case of DRKLHSRLRKLYKHSSTSSRIAKG [P8L] it was 2.76; in that of DRKLHSRDRKLYKHSSTSSRIAKG [P8D], 4.51. In the case of DRKLHSRERKLYKHSSTSSRIAKG [P8E], the protein stability index amounted to 4.08.

Consider DRKLHSRTRKLYKHSSTSSRIAKG [P8T], for which the protein stability index amounted to 3.31. On the same count and under the same terms, in the case of DEKLHSRPRKLYKHSSTSSRIAKG [R2E] it was 4.39; in that of DVKLHSRPRKLYKHSSTSSRIAKG [R2V], 3.65; in that of DSKLHSRPRKLYKHSSTSSRIAKG [R2S], 4.14. On the same count and under the same terms, as for DAKLHSRPRKLYKHSSTSSRIAKG [R2A], the figure is 3.42. As for DWKLHSRPRKLYKHSSTSSRIAKG [R2W], the protein stability index was 3.68. The same measure, in the same setting: as for DNKLHSRPRKLYKHSSTSSRIAKG [R2N], the figure is 3.96; as for DDKLHSRPRKLYKHSSTSSRIAKG [R2D], 4.04.

Take DYKLHSRPRKLYKHSSTSSRIAKG [R2Y]: the protein stability index was determined as 3.16.

For the variant DRKLHSRPRDLYKHSSTSSRIAKG [K10D], the protein stability index stood at 4.21.

Regarding DRKLHSRPRMLYKHSSTSSRIAKG [K10M], the protein stability index amounted to 3.24. On to DRKLHSRPRELYKHSSTSSRIAKG [K10E], for which the protein stability index worked out at 2.8. For the variant DRKLHSRPRRLYKHSSTSSRIAKG [K10R], the protein stability index was found to be 3.97.

As to DRKLHSRPRFLYKHSSTSSRIAKG [K10F], the protein stability index was found to be 3.18. Still for that read-out and setting: as for DRKLHSRPRCLYKHSSTSSRIAKG [K10C], the figure is 3.55; as for DRKLHSRPRHLYKHSSTSSRIAKG [K10H], 4.07. Take DRKLHSRPRSLYKHSSTSSRIAKG [K10S]: the protein stability index was 4.09. Regarding DRKLHSRPRYLYKHSSTSSRIAKG [K10Y], the protein stability index turned out to be 3.94.

Take DRKLHSRPRGLYKHSSTSSRIAKG [K10G]: the protein stability index came out at 3.52. The same measure, in the same setting: as for DRQLHSRPRKLYKHSSTSSRIAKG [K3Q], the figure is 3.87; as for DRTLHSRPRKLYKHSSTSSRIAKG [K3T], 3.83.

Consider DRLLHSRPRKLYKHSSTSSRIAKG [K3L], for which the protein stability index was determined as 3.77. Same read-out and setting: as for DRFLHSRPRKLYKHSSTSSRIAKG [K3F], the figure is 3.24; as for DRWLHSRPRKLYKHSSTSSRIAKG [K3W], 3.64; as for DRRLHSRPRKLYKHSSTSSRIAKG [K3R], 3.63. On the same count and under the same terms, as for DRKLVSRPRKLYKHSSTSSRIAKG [H5V], the figure is 3.02; as for DRKLPSRPRKLYKHSSTSSRIAKG [H5P], 4.5. On the same count and under the same terms, as for DRKLCSRPRKLYKHSSTSSRIAKG [H5C], the figure is 3.9; as for DRKLASRPRKLYKHSSTSSRIAKG [H5A], 4.22. As for DRKLNSRPRKLYKHSSTSSRIAKG [H5N], the protein stability index was found to be 5.44. On the same count and under the same terms, as for DRKLQSRPRKLYKHSSTSSRIAKG [H5Q], the figure is 3.69. The same measure, in the same setting: as for DRKLTSRPRKLYKHSSTSSRIAKG [H5T], the figure is 4.17. For the variant DRKLHSRPRKLYKHSSTMSRIAKG [S18M], the protein stability index stood at 3.63. As for DRKLHSRPRKLYKHSSTPSRIAKG [S18P], the protein stability index was 3.93. As for DRKLHSRPRKLYKHSSTQSRIAKG [S18Q], the protein stability index was 3.95. The same measure, in the same setting: in the case of DRKLHSRPRKLYKHSSTFSRIAKG [S18F] it was 3.04. The same measure, in the same setting: as for DRKLHSRPRKLYKHSSTVSRIAKG [S18V], the figure is 4.07; as for DRKLHSRPRKLYKHSSTLSRIAKG [S18L], 4.3. Same read-out and setting: as for DRKLHSRPRKLYKHSSTISRIAKG [S18I], the figure is 3.54; as for DRKLHSRPRKLYKHSSTKSRIAKG [S18K], 3.4; as for DRKLHSRPRKLYKHSSTESRIAKG [S18E], 4.38. With DRKLHSRPRKLYKHSSTCSRIAKG [S18C], the protein stability index turned out to be 3.27.

As for DRKLHSRPRKLYKHSSTSSRIAKA [G24A], the protein stability index came to 3.61.

On to DRKLHSRPRKLYKHSSTSSRIAKD [G24D], for which the protein stability index is 3.65. The same measure, in the same setting: in the case of DRKLHSRPRKLYKHSSTSSRIAKF [G24F] it was 3.19; in that of DRKLHSRPRKLYKHSSTSSRIAKP [G24P], 4.05; in that of DRKLHSRPRKLYKHSSTSSRIAKL [G24L], 3.28. As to DRKLHSRPRKLYKHSSTSSRIAKS [G24S], the protein stability index came to 3.65. For the variant DRKLHSRPRKLYKHSSTSSRIAKH [G24H], the protein stability index came out at 3.35. With DRKLHSRPWKLYKHSSTSSRIAKG [R9W], the protein stability index was determined as 3.51. On the same count and under the same terms, as for DRKLHSRPCKLYKHSSTSSRIAKG [R9C], the figure is 3.74; as for DRKLHSRPHKLYKHSSTSSRIAKG [R9H], 3.7; as for DRKLHSRPLKLYKHSSTSSRIAKG [R9L], 3.85. The same measure, in the same setting: as for DRKLHSRPNKLYKHSSTSSRIAKG [R9N], the figure is 4.13. The same measure, in the same setting: in the case of DRKLHSTPRKLYKHSSTSSRIAKG [R7T] it was 4.31. Consider DRKLHSPPRKLYKHSSTSSRIAKG [R7P], for which the protein stability index turned out to be 4.33.

As for DRKLHSYPRKLYKHSSTSSRIAKG [R7Y], the protein stability index worked out at 3.83. Consider DRKLHSRPRKLYKHSSTSSRIAYG [K23Y], for which the protein stability index stood at 2.98. Same read-out and setting: as for DRKLHSRPRKLYKHSSTSSRIAIG [K23I], the figure is 2.92.

With DRKLHSRPRKLYKHSSTSSRIAGG [K23G], the protein stability index was determined as 4.08.

With DRKLHSRPRKLYKHSSTSSRIASG [K23S], the protein stability index was 3.41.

For DRKLHSRPRKLYKHSSTSSRIAEG [K23E], the protein stability index amounted to 4.08. The same measure, in the same setting: in the case of DRKLHSRPRKLYKHSSTSSNIAKG [R20N] it was 4.21; in that of DRKLHSRPRKLYKHSSTSSQIAKG [R20Q], 4.2; in that of DRKLHSRPRKLYKHSSTSSPIAKG [R20P], 3.6. For the variant DRKLHSRPRKLYKHSSTSSVIAKG [R20V], the protein stability index was found to be 3.96. Same read-out and setting: in the case of DRKLHSRPRKLYKHSSTSSIIAKG [R20I] it was 3.66; in that of DRKLHSRPRKLYKHSSTSSTIAKG [R20T], 4.13; in that of DRKLHSRPRKLYKHSSTSSSIAKG [R20S], 3.85.
